Measured values reported in the supplement of paper PMC10899765.

system: MCF10A; experiment: percent viability (nuclei count relative to siNT); higher = more viable cells; conditions: 20 nM; 72 h
Protocol: (§1)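 After 72 h, cells were fixed and stained with Hoechst and anti-fibrillarin, and nucleoli per nucleus were counted with CellProfiler. Values are plate-adjusted percent effect for the one-nucleolus and 5+ nucleoli phenotypes, normalised to siNT (0%) and to the positive controls siNOL11 or siKIF11 (100%), as the mean of biological triplicates. Percent viability is the nuclei count relative to siNT.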

In order of falling percent viability:
1. UAACAGUCUCCAGUCACGGCC [hsa-miR-212-3p]  219%
2. AAUAAUACAUGGUUGAUCUUU [hsa-miR-369-3p]  162%
3. GGGGGUCCCCGGUGCUCGGAUC [hsa-miR-615-5p]  137%
4. UCAAGUGUCAUCUGUCCCUAG [hsa-miR-6513-3p]  126%
5. UUCACAGUGGCUAAGUUCCGC [hsa-miR-27a-3p]  118%
6. AGCUGUAAUUAGUCAGUUUUCU [hsa-miR-1537-5p]  117%
7. AAAAGUAAUUGUGGUUUUUGCC [hsa-miR-548d-5p]  95.4%
8. CCUCAGAUCAGAGCCUUGC [hsa-miR-4330]  91.9%
9. GACACGGGCGACAGCUGCGGCCC [hsa-miR-602]  91.9%
10. GUUGUGUCAGUUUAUCAAAC [hsa-miR-599]  84.3%
11. GCGACUCUGAAAACUAGAAGGU [hsa-miR-4431]  82.9%
12. UGCCCAUGCCAUACUUUUGCCUCA [hsa-miR-4641]  78.6%
13. GCUGGGCAGGGCUUCUGAGCUCCUU [hsa-miR-612]  77.6%
14. ACUGCAGUGAAGGCACUUGUAG [hsa-miR-17-3p]  70.9%
15. CCACGUGCUUCUCUUUCCGCAG [hsa-miR-6767-3p]  69%
16. UUUGAGGCUACAGUGAGAUGUG [hsa-miR-1304-5p]  68.3%
17. ACUCCAGUUUUAGUUCUCUUG [hsa-miR-3925-3p]  63.4%
18. ACCAAGUCUGCGUCAUCCUCUC [hsa-miR-3691-3p]  63.2%
19. UACCUGGGAGACUGAGGUUGGA [hsa-miR-7851-3p]  61.5%
20. CAGUGGUUUUACCCUAUGGUAG [hsa-miR-140-5p]  61.4%
21. CAUGACGUCACAGAGGCUUCGC [hsa-miR-4757-3p]  61.2%
22. GGCAGGAGGGCUGUGCCAGGUUG [hsa-miR-4722-5p]  60.5%
23. AAAAGCAUCAGGAAGUACCCA [hsa-miR-4422]  58.8%
24. GAGGCUGAAGGAAGAUGG [hsa-miR-4419b]  58.3%
25. UCUUCAACCUCAGGACUUGCA [hsa-miR-676-5p]  56%
26. CCUCUAGAUGGAAGCACUGUCU [hsa-miR-517-5p]  56%
27. UCCCUGGAGUUUCUUCUU [hsa-miR-4308]  53.7%
28. UCACUACCUGACAAUACAGU [hsa-miR-4999-3p]  52.7%
29. GGCUAGCAACAGCGCUUACCU [hsa-miR-621]  51.6%
30. CAAAAGUGAUCGUGGUUUUUG [hsa-miR-548t-5p]  51.5%
31. UAGGAUGGGGGUGAGAGGUG [hsa-miR-2392]  50.4%
32. AAGAGAACUGAAAGUGGAGCCU [hsa-miR-3925-5p]  49.5%
33. AACAUCACAGCAAGUCUGUGCU [hsa-miR-499a-3p]  49.3%
34. GCAGAUCAGGACUGUAACUCACC [hsa-miR-1288-5p]  48.5%
35. UGUCACCCGCUCCUUGCCCAG [hsa-miR-6879-3p]  47.6%
36. AAACUCUACUUGUCCUUCUGAGU [hsa-miR-618]  46.5%
37. ACUGGACUUGGAGUCAGAAGG [hsa-miR-378a-3p]  45.2%
38. CCAUGAAGCAGUGGGUAGGAGGAC [hsa-miR-8060]  43.2%
39. AGCCCGCCCCAGCCGAGGUUCU [hsa-miR-4707-3p]  42.9%
40. UUGGGAUCAUUUUGCAUCCAUA [hsa-miR-450b-3p]  42.8%
41. UAGGUAGUUUCCUGUUGUUGGG [hsa-miR-196b-5p]  41.4%
42. UUAGUCCUGCCUGUAGGUUUA [hsa-miR-4540]  39.3%
43. GGGAAGAGCUGUACGGCCUUC [hsa-miR-6077]  37.4%
44. AGUUAGGAUUAGGUCGUGGAA [hsa-miR-1258]  37.3%
45. UGCAGGACCAAGAUGAGCCCU [hsa-miR-1286]  35.9%
46. CUCCUCUGUUUUCUUUCCUAG [hsa-miR-6780a-3p]  34.4%
47. CUCCCACUUCCAGAUCUUUCU [hsa-miR-3156-3p]  34.1%
48. GUGAGUGUGGAUUUGGCGGGGUU [hsa-miR-6790-5p]  31.8%
49. CUCCUGACUCCAGGUCCUGUGU [hsa-miR-378a-5p]  25.2%
50. AGGACUGAUCCUCUCGGGCAGG [hsa-miR-4740-5p]  24.1%
51. UGGAGAGAAAGGCAGUUCCUGA [hsa-miR-185-5p]  21.7%
52. UGAGGUAGUAGUUUGUACAGUU [hsa-let-7g-5p]  21.6%
53. UCAGGCCUCUUUCUACCUU [hsa-miR-4650-5p]  19.7%
54. UUCCAGCCCUGGUAGGCGCCGCG [hsa-miR-6720-5p]  17.9%
55. UCUGGGAGGUUGUAGCAGUGGAA [hsa-miR-3192]  14.6%
56. AGUGGGGAACCCUUCCAUGAGG [hsa-miR-491-5p]  10.1%
57. GAAGGCAGCAGUGCUCCCCUGU [hsa-miR-3714]  9.1%
58. GGGGUGGUCUGUUGUUG [hsa-miR-4483]  5.44%

system: MCF10A; experiment: 5+ nucleoli phenotype percent effect (relative to siNT 0% and siKIF11 100%); higher = more cells with five or more nucleoli; conditions: 20 nM; 72 h
Protocol: as §1

In order of falling “5+ nucleoli phenotype percent effect” value:
1. CCUCAGAUCAGAGCCUUGC [hsa-miR-4330]  59.5%
2. UAGGUAGUUUCCUGUUGUUGGG [hsa-miR-196b-5p]  54.4%
3. GACACGGGCGACAGCUGCGGCCC [hsa-miR-602]  45.6%
4. UCAAGUGUCAUCUGUCCCUAG [hsa-miR-6513-3p]  42.1%
5. ACUCCAGUUUUAGUUCUCUUG [hsa-miR-3925-3p]  38%
6. UCUUCAACCUCAGGACUUGCA [hsa-miR-676-5p]  37.9%
7. GCGACUCUGAAAACUAGAAGGU [hsa-miR-4431]  34.2%
8. GGGGGUCCCCGGUGCUCGGAUC [hsa-miR-615-5p]  33.1%
9. GCAGAUCAGGACUGUAACUCACC [hsa-miR-1288-5p]  31.1%
10. UGAGGUAGUAGUUUGUACAGUU [hsa-let-7g-5p]  29%
11. UCCCUGGAGUUUCUUCUU [hsa-miR-4308]  27.5%
12. UACCUGGGAGACUGAGGUUGGA [hsa-miR-7851-3p]  24.6%
13. ACUGCAGUGAAGGCACUUGUAG [hsa-miR-17-3p]  12.2%
14. CUCCCACUUCCAGAUCUUUCU [hsa-miR-3156-3p]  12%
15. AAUAAUACAUGGUUGAUCUUU [hsa-miR-369-3p]  11.7%
16. CAAAAGUGAUCGUGGUUUUUG [hsa-miR-548t-5p]  9.99%
17. AAAAGCAUCAGGAAGUACCCA [hsa-miR-4422]  2.92%
18. UCACUACCUGACAAUACAGU [hsa-miR-4999-3p]  0.698%
19. ACCAAGUCUGCGUCAUCCUCUC [hsa-miR-3691-3p]  0.0313%
20. UUCACAGUGGCUAAGUUCCGC [hsa-miR-27a-3p]  -6.22%
21. GCUGGGCAGGGCUUCUGAGCUCCUU [hsa-miR-612]  -7.01%
22. AAGAGAACUGAAAGUGGAGCCU [hsa-miR-3925-5p]  -8.02%
23. CUCCUGACUCCAGGUCCUGUGU [hsa-miR-378a-5p]  -8.66%
24. UGGAGAGAAAGGCAGUUCCUGA [hsa-miR-185-5p]  -10.1%
25. AGGACUGAUCCUCUCGGGCAGG [hsa-miR-4740-5p]  -14.8%
26. GGCUAGCAACAGCGCUUACCU [hsa-miR-621]  -15.8%
27. AAACUCUACUUGUCCUUCUGAGU [hsa-miR-618]  -16.4%
28. UCUGGGAGGUUGUAGCAGUGGAA [hsa-miR-3192]  -19.2%
29. UUCCAGCCCUGGUAGGCGCCGCG [hsa-miR-6720-5p]  -23.2%
30. CCACGUGCUUCUCUUUCCGCAG [hsa-miR-6767-3p]  -26%
31. CAGUGGUUUUACCCUAUGGUAG [hsa-miR-140-5p]  -31.4%
